Experimental findings from publication PMC6395372, “Myosin Va interacts with the exosomal protein spermine synthase” (Bioscience Reports, 2019) are described below.

In data set [1] the target is T1, MyoVa-GTD, wild type (globular tail domain of myosin Va) (human, UniProt Q9Y4I1 1448-1855).
T1 construct: Myosin Va, human, wild-type globular tail domain; limits are printed only for the EE two-hybrid construct (1448-1855 of NP_000250.3); In pET28a-TEV; Limits probably 1448-1855 as for the EE construct; also called TEV-treated MyoVa-GTD; source: E. coli BL21(DE3)∆SlyD pRARE2, purified (HiTrap Chelating, TEV cleavage, Superdex 200)
T1 sequence (Q9Y4I1 1448-1855): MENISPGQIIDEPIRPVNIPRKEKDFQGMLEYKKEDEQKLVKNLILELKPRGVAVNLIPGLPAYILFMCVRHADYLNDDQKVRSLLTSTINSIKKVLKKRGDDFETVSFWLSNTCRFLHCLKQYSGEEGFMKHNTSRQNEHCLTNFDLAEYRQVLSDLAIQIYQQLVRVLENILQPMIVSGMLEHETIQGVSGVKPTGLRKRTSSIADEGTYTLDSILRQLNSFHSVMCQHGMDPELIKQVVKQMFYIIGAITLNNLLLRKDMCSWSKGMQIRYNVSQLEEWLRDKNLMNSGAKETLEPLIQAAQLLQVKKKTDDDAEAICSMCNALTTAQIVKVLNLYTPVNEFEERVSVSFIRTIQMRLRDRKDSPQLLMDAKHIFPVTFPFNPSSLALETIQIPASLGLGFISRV
Put plainly: MST; Monolith NT.115, LED power 40%, MST power 60%; 50 nM His-tagged SMS labelled with RED-tris-NTA, serial dilution of MyoVa-GTD; 20 mM HEPES, 150 mM NaCl, 5% glycerol, pH 7.4; triplicate; Hill fit. Particulars: both partners purified.

Data set [2] deals with the molecule itself. Put plainly: SEC; Superdex 75 pg 16/600, 20 mM HEPES, 150 mM NaCl, 5% glycerol, pH 7.4; SMS dimers at Ve ~70 mL. For orientation: In gel filtration, larger molecules generally elute earlier.

B1: Spermine synthase (SMS), full length, His-tagged (enzyme, human, UniProt P52788-1 1-366, looked up)
chain: MAAARHSTLDFMLGAKADGETILKGLQSIFQEQGMAESVHTWQDHGYLATYTNKNGSFANLRIYPHGLVLLDLQSYDGDAQGKEEIDSILNKVEERMKELSQDSTGRVKRLPPIVRGGAIDRYWPTADGRLVEYDIDEVVYDEDSPYQNIKILHSKQFGNILILSGDVNLAESDLAYTRAIMGSGKEDYTGKDVLILGGGDGGILCEIVKLKPKMVTMVEIDQMVIDGCKKYMRKTCGDVLDNLKGDCYQVLIEDCIPVLKRYAKEGREFDYVINDLTAVPISTSPEEDSTWEFLRLILDLSMKVLKQDGKYFTQGNCVNLTEALSLYEEQLGRLYCPVEFSKEIVCVPSYLELWVFYTVWKKAKP
modifications: RED-tris-NTA dye label on the His-tag (in the MST assay)
notes: Spermine synthase, human, full-length ORF (NM_004595.4, 253-1353 pb) amplified from a human cDNA library; In pET28a-TEV; the fractions with SMS dimers were used in MST; also called 6xHis-SMS; His-tagged-labeled-SMS; source: E. coli BL21(DE3)∆SlyD pRARE2, purified (HiTrap Chelating, Superdex 75)
One may read the Kd as the concentration at which binding is half-saturated. High values mean lower affinity, low ones higher affinity. A word on the stoichiometry N: it is the number of molecules, sites or subunits per partner or assembly. For the molecule B1, in data set [1], the affinity, expressed as Kd, was 3.5 ± 0.5 µM. The “stoichiometry N” value in data set [2] came out at 2.
